Earlier results in patent US20240209043A1, “NON-ANTIBODY BINDING PEPTIDES AND THEIR ANALOGS DUAL-TARGETING TO PD-1 AND PD-L1, AND USES THEREOF” (ORAL SUBSIDIARY SUN YAT-SEN UNIVERSITY HOSPITAL, priority 2021, published 2024).

Target: PD-1 (Homo sapiens, UniProt Q15116)
Settings: background section; read-out: Kd-value of antibody drug targeting PD-1

PD-1, sequence (Q15116 25-288): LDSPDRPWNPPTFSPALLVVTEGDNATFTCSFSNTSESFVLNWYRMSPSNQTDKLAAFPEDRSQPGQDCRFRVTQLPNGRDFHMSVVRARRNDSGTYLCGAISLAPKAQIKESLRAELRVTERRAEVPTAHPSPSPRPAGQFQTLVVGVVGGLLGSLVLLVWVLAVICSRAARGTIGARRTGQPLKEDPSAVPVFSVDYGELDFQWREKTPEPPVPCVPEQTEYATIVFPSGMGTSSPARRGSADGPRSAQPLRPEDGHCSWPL

B1: Camrelizumab (antibody, chains of the INN, looked up, V domains shown)
VH: EVQLVESGGGLVQPGGSLRLSCAASGFTFSSYMMSWVRQAPGKGLEWVATISGGGANTYYPDSVKGRFTISRDNAKNSLYLQMNSLRAEDTAVYYCARQLYYFDYWGQGTTVTVSS
VL: DIQMTQSPSSLSASVGDRVTITCLASQTIGTWLTWYQQKPGKAPKLLIYTATSLADGVPSRFSGSGSGTDFTLTISSLQPEDFATYYCQQVYSIPWTFGGGTKVEIK
notes: marketed IgG4 antibody drug targeting PD-1
Q: Which Kd does the source give for B1 here?
A: 3.31 nM
